Data taken from US11110182B2, “Multifunctional RNA nanoparticles and methods for treating cancer and therapeutic resistant cancer” (University of Cincinnati, priority 2016, dated 2021).

Tested on: MDA-MB-231 cells
Test: pRNA nanoparticle cellular uptake assay (confocal, flow cytometry), MDA-MB-231
Assay type: cell-based, human
Conditions: MDA-MB-231 (HER2-negative), AF647-conjugated, 10 μg/mL, confocal microscopy
Text: FIG. 8A) HER2 expression in BT474 and MDA-MB-231 cells determined by western blot analyses. FIG. 8B) The binding of AF-647-labeled pRNA-HER2apt-siMED1 and its mutant nanoparticles to MDA-MB-231 and BT474 cells examined by confocal microscopy. Green represents the immunofluorescent staining of HER2, and blue represents nuclear staining with DAPI. FIG. 8C) The internalization of AF647-labeled pRNA nanoparticles by MDA-MB-231 cells examined by confocal microscopy. Green represents the immunofluorescent staining of β-actin. Scale bar: 10 μm. FIG. 8D) The cellular uptake of AF647-labeled pRNA nanoparticles by MDA-MB-231 cells quantified by flow cytometry. FIG. 8E) HER2 expression in BT474 xenograft tumors was examined by western blot analyses. FIG. 8F) MDA-MB-231 cells were incubated directly with (as indicated by-) or transfected with pRNAs using lipofectamine 2000. At 48 h post treatment, MED1 protein levels were determined by western blots.
Cell culture. […] The hydrodynamic diameter and Tm value of pRNA nanoparticles were determined using dynamic light scattering and TGGE assay, respectively, as previously described.^54 The AFM imaging of the pRNA nanoparticles was performed at the University of Nebraska Medical Center imaging facility as previously reported.^55 Briefly, the pRNA nanoparticles (5 μL) were deposited on APS modified mica ^56 for a total of 2 min of incubation time. […]

B1: pRNA-HER2apt-siMED1: 3-WJ pRNA nanoparticle bearing a HER2-targeting RNA aptamer and two different MED1 siRNAs; strands p1 SEQ ID NO: 3, p2 SEQ ID NO: 4 (nucleic acid)
chain 1: GGACAGUGAAAGUGAGUCAAAGGAUCAAUCAUGGCCAAAGAUGUUACUUUGAGAGCCUU
chain 2: GGCUCUCAAAGUAACAUCUAAGGCCAUGUGUAUGUGGGGGGAGGACGAUGCGGUCUGCUGUGCUUGAUAUGCCCCAGACGACUCGCCCCCCACAUACUUUGUUGAUCCAAUGACUCACUUUCACUGUCCUU
modifications: 2'-F modification; third strand may lack entry; pRNA-HER2apt-siMED1, p1; pRNA-HER2apt-siMED1, p2
binding and internalization into cells: not
